Reference: patent US20190282673A1, “STAPHTAME ACTIVITY ON BIOFILMS” (priority 2016, published 2019)

Columns and labels:
[1] = system: multi-species biofilm (P. aeruginosa PAO1, S. aureus ATCC 700699, E. faecalis ATCC 29212); experiment: Lubbock chronic wound pathogenic biofilm (LCWPB) mixed culture model; type: cell-based; conditions: for CFU/mL of P. aeruginosa / CFU/mL of E. faecalis / CFU/mL of S. aureus: 24 h
Protocol: LCWPB media (Bolton broth, Oxoid Ltd, supplemented with 50% Bovine Plasma and 5% hemolyzed horse blood) was used for multi-species biofilm formation according to the procedure described. Sun, et al. (2008) “In vitro multispecies Lubbock chronic wound biofilm model” Wound Repair Regen. 16:805-13. Briefly, P. aeruginosa PAO1, E. faecalis ATCC 29212 and S. aureus ATCC 700699 grown on TSB agar plates were inoculated into TSB broth and grown at 37° C. in a shaker for 16 h. The cultures were individually diluted to 1×10^6 CFU/mL, mixed in equal volumes, and 10 μL was added to 3 mL of LCWPB media containing a sterile pipette tip. For biofilm formation either two (P. aeruginosa PAO1, and S. aureus ATCC 700699) or all three bacterial species (P. aeruginosa PAO1, E. faecalis ATCC 29212 and S. aureus ATCC 700699) were inoculated into LCWPB media. In this model the pipette tip acts as a surface for biofilm formation. To test the ability of P128 to prevent biofilm formation, P128 at 10, 50 and 250 μg/mL was added to the tubes and the tubes were incubated at 37° C. in a shaker for 24 h with shaking at 150 rpm. Upon completion of incubation, the tips were removed from the tubes and placed on petri plates for observation. In the absence of P128, a confluent and thick mass of biofilm could be seen. The mass of the biofilm was greater in culture tubes with 3 species than in the ones with 2 species. For enumeration of bacteria in biofilms, the biofilm formed on the tips was washed twice in PBS, transferred into clean test tubes, and again washed twice with PBS. The washed biofilm mass was then transferred to a 50 mL conical polypropylene tube and the biofilm was macerated with sterile scissors. In situations when biofilm formation was not visible, the tips alone were processed as described above. The contents were vortexed thoroughly, diluted and plated on TSA plates. The plates were incubated for 24 h at 37° C. followed by incubation at ambient temperature for 24 h to enhance pigment production.

[2] = system: S. aureus stationary phase cells; experiment: P128 activity on stationary phase cells (CFU); type: cell-based, Staphylococcus aureus; conditions: for CFU/mL, P128 treated: 10 μg/mL P128, 2 h
From the text: (§1) Most in vitro studies examining the activity of antibiotics have been performed on rapidly dividing planktonic bacterial cultures supplemented with rich growth media. However, in infections, bacteria seldom encounter optimal conditions that allow logarithmic growth. It is likely that stationary-phase or non dividing bacteria are common in many persistent Staphylococcus infections such as endocarditis and osteomyelitis and in biofilm-associated infections (e.g., on catheters, grafts, and foreign bodies). Therefore, activity of P128 was determined on stationary phase cells of three S. aureus strains, three S. epidermidis, and two each of S. lugdunensis and S. haemolyticus strains. Briefly, the test cultures were grown overnight in LB (˜10^9 cells), centrifuged, pellet was washed and resuspended in saline. Optical density (OD600) was adjusted to 0.2 (˜10^8 CFU/mL). 100 μL of these cells were treated with 10 μg/mL P128 (in saline) and incubated at 37° C. for 2 h, 200 rpm, cell controls without proteins were maintained. Following incubation, the volume was made up to 1 mL with saline, serially log diluted in saline and plated on LB agar. Incubated at 37° C. for 18 h to enumerate residual CFU to determine cell killing.

[3] = system: S. epidermidis stationary phase cells; experiment: P128 activity on stationary phase cells (CFU); type: cell-based, Staphylococcus epidermidis; conditions: 10 μg/mL P128, 2 h
From the text: as §1

[4] = system: S. haemolyticus stationary phase cells; experiment: P128 activity on stationary phase cells (CFU); type: cell-based; conditions: 10 μg/mL P128, 2 h
From the text: as §1

[5] = system: S. lugdunensis stationary phase cells; experiment: P128 activity on stationary phase cells (CFU); type: cell-based; conditions: 10 μg/mL P128, 2 h
From the text: as §1

S. aureus = experiment: P128 MIC in CAMHB and serum; type: cell-based, Staphylococcus aureus
S. epidermidis = experiment: P128 MIC in CAMHB and serum; type: cell-based, Staphylococcus epidermidis
S. haemolyticus = experiment: P128 MIC in CAMHB and serum; type: cell-based
MRSA MW2 = experiment: Rat model of infective endocarditis; type: in vivo, Wistar albino rats; conditions: described in present tense, no data
From the text: A rat model of infective endocarditis is used. Fernandez, et al. (2012). Synergistic activity of ceftobiprole and vancomycin in a rat model of infective endocarditis caused by methicillin-resistant and glycopeptide-intermediate Staphylococcus aureus. Antimicrob Agents Chemother. 56(3):1476-84. Female Wistar albino rats are operated under ketamine and xylazine anaesthesia Right carotid artery is cannulated and polyethylene catheter is placed near the […]. Two days later, animals are challenged with MRSA MW2 through tail vein. Twenty four hours post-challenge, animals are treated with appropriate doses of P128 (IV bolus or infusion) or standard of care antibiotics (e.g., vancomycin, daptomycin, linezolid, oxacillin, etc.) or both. Animals are euthanized at appropriate time after the last dosing, vegetations are collected and bacterial load is determined.

[6] = two species (P. aeruginosa PAO1, S. aureus ATCC 700699), P128 10 μg/mL

B1: P128: anti-staphylococcal chimeric protein: phage tail associated muralytic enzyme (TAME) cell wall-degrading region plus staphylococcus-specific binding region; SEQ ID NO: 1 (protein)
chain: MSLDSLKKYNGKLPKHDPSFVQPGNRHYKYQCTWYAYNRRGQLGIPVPLWGDAADWIGGAKGAGYGVGRTPKQGACVIWQRGVQGGSPQYGHVAFVEKVLDGGKKIFISEHNYATPNGYGTRTIDMSSAIGKNAQFIYDKKLETPNTGWKTNKYGTLYKSESASFTPNTDIITRTTGPFRSMPQSGVLKAGQTIHYDEVMKQDGHVWVGYTGNSGQRIYLPVRTWNKSTNTLGVLWGTIK
modifications: P128 chimera
With B1 the “Prevention of biofilm formation” value ([1]; P128 1×MIC (10 μg/mL)) was “prevented the formation of biofilms”, the “CFU/mL of P. aeruginosa” value ([1]; three species (P. aeruginosa PAO1, S. aureus ATCC 700699, E. faecalis ATCC29212), P128 10 μg/mL) was 2.2 × 10^5 CFU/mL and the “CFU/mL of E. faecalis” value ([1]; three species, P128 10 μg/mL) was 9 × 10^5 CFU/mL. For the same molecule, the “CFU/mL of S. aureus” value ([1]; three species, P128 10 μg/mL) was 2 × 10^4 CFU/mL, the “CFU/mL of E. faecalis” value ([1]; three species, P128 50 μg/mL) was 1.8 × 10^4 CFU/mL and the “CFU/mL of P. aeruginosa” value ([1]; three species, P128 50 μg/mL) was 7 × 10^4 CFU/mL. The “CFU/mL of S. aureus” value ([1]; three species, P128 50 μg/mL) was 2 × 10^3 CFU/mL, the “CFU/mL of E. faecalis” value ([1]; three species, P128 250 μg/mL) was 1.6 × 10^4 CFU/mL and the “CFU/mL of P. aeruginosa” value ([1]; three species, P128 250 μg/mL) was 1.7 × 10^5 CFU/mL. For the same molecule, the “CFU/mL of S. aureus” value ([1]; three species, P128 250 μg/mL) was <10 CFU/mL, the “CFU/mL of P. aeruginosa” value [1, 6] was 2 × 10^6 CFU/mL and the “CFU/mL of S. aureus” value [1, 6] was 2.2 × 10^5 CFU/mL. The “CFU/mL of P. aeruginosa” value ([1]; two species, P128 50 μg/mL) was 1.5 × 10^5 CFU/mL, the “CFU/mL of S. aureus” value ([1]; two species, P128 50 μg/mL) was 1.8 × 10^5 CFU/mL and the “CFU/mL of P. aeruginosa” value ([1]; two species, P128 250 μg/mL) was 8 × 10^5 CFU/mL. The “CFU/mL of S. aureus” value ([1]; two species, P128 250 μg/mL) was 2 × 10^3 CFU/mL, the “CFU/mL, P128 treated” value ([2]; S. aureus B9377 stationary phase) was 3 × 10^2 CFU/mL and the “CFU/mL, P128 treated” value ([2]; S. aureus BK18 stationary phase) was 1 × 10^1 CFU/mL. For the same molecule, the “CFU/mL, P128 treated” value ([2]; S. aureus BK31 stationary phase) was 3.5 × 10^1 CFU/mL, the “Drop in CFU, stationary cells” value ([2]; S. aureus, S. epidermidis, S. lugdunensis and S. haemolyticus) was “Three to five log drop in CFU” and the “CFU/mL, P128 treated” value ([3]; S. epidermidis B9467 stationary phase) was 3.7 × 10^2 CFU/mL. The “CFU/mL, P128 treated” value ([3]; S. epidermidis B9470 stationary phase) was 1.5 × 10^2 CFU/mL, the “CFU/mL, P128 treated” value ([3]; S. epidermidis B9472 stationary phase) was 7 × 10^1 CFU/mL and the “CFU/mL, P128 treated” value ([4]; S. haemolyticus B9478 stationary phase) was 1.1 × 10^3 CFU/mL. The “CFU/mL, P128 treated” value ([4]; S. haemolyticus B9479 stationary phase) was 6 × 10^2 CFU/mL, the “CFU/mL, P128 treated” value ([5]; S. lugdunensis B9474 stationary phase) was 4.9 × 10^2 CFU/mL and the “CFU/mL, P128 treated” value ([5]; S. lugdunensis B9475 stationary phase) was 2.7 × 10^4 CFU/mL. For the same molecule, the “Fold reduction in serum MIC” value (S. aureus; S. aureus MW2) was 64 fold, the “MIC of P128 in CAMHB” value (S. aureus; S. aureus MW2) was 8 μg/ml and (0.29) μM and the “MIC of P128 in Serum” value (S. aureus; S. aureus MW2) was 0.12 μg/ml and (0.004) μM. The “Fold reduction in serum MIC” value (S. aureus; S. aureus USA 300) was 64 fold, the “MIC of P128 in CAMHB” value (S. aureus; S. aureus USA 300) was 8 μg/ml and (0.29) μM and the “MIC of P128 in Serum” value (S. aureus; S. aureus USA 300) was 0.12 μg/ml and (0.004) μM. The “Fold reduction in serum MIC” value (S. epidermidis; S. epidermidis B9470) was 32 fold, the “MIC of P128 in CAMHB” value (S. epidermidis; S. epidermidis B9470) was 4 μg/ml and (0.14) μM and the “MIC of P128 in Serum” value (S. epidermidis; S. epidermidis B9470) was 0.12 μg/ml and (0.004) μM. The “Fold reduction in serum MIC” value (S. epidermidis; S. epidermidis B9473) was 4 fold, the “MIC of P128 in CAMHB” value (S. epidermidis; S. epidermidis B9473) was 16 μg/ml and (0.58) μM and the “MIC of P128 in Serum” value (S. epidermidis; S. epidermidis B9473) was 4 μg/ml and (0.14) μM. The “24 h P128 MIC for serum time-kill” value (S. epidermidis; S. epidermidis, fetal calf serum) was 0.25 µg/mL, the “Fold reduction in serum MIC” value (S. haemolyticus; S. haemolyticus B9478) was 16 fold and the “MIC of P128 in CAMHB” value (S. haemolyticus; S. haemolyticus B9478) was 128 μg/ml and (4.64) μM. The “MIC of P128 in Serum” value (S. haemolyticus; S. haemolyticus B9478) was 8 μg/ml and (0.29) μM, the “Fold reduction in serum MIC” value (S. haemolyticus; S. haemolyticus B9511) was 32 fold and the “MIC of P128 in CAMHB” value (S. haemolyticus; S. haemolyticus B9511) was 8 μg/ml and (0.29) μM. The “MIC of P128 in Serum” value (S. haemolyticus; S. haemolyticus B9511) was 0.25 μg/ml and (0.008) μM, the “24 h P128 MIC for serum time-kill” value (S. haemolyticus; S. haemolyticus, fetal calf serum) was 0.25 µg/mL and the “CFU reduction in vegetations” value (MRSA MW2) was “Significantly higher CFU reduction”.
